Drawing on US20020102215A1, this text covers % of microbubble population fluorescent for one substance.

In this assay the target is thiolated anti-CD34 antibody conjugated to gas-filled microbubbles encapsulated with DSPS and comprising DSPE-PEG2000-MAL. The experiment in a line: flow cytometry of anti-CD34-conjugated microbubbles after incubation with the FITC-labelled secondary antibody and washing. (In general: In flow cytometry, cells or beads pass a laser one at a time.)

Substance “FITC-conjugated goat-anti-mouse antibody” returned a % of microbubble population fluorescent of 98%.
